Measured values reported in patent US20070141062A1 (published 2007).
Substitutions are numbered along the chain they refer to. Blank lines part the entries; values can stand above or below the binder they belong to.

Legend:
[1] = molecular target: T1, Retinoblastoma protein (Rb), endogenous in the cells used (UniProt P06400 2-928); assay: IP with anti-Rb (G99-2005) from transfected HEK 293 extracts, anti-V5 western
T1 construct: also called endogenous Rb; total Rb
T1 sequence (looked up): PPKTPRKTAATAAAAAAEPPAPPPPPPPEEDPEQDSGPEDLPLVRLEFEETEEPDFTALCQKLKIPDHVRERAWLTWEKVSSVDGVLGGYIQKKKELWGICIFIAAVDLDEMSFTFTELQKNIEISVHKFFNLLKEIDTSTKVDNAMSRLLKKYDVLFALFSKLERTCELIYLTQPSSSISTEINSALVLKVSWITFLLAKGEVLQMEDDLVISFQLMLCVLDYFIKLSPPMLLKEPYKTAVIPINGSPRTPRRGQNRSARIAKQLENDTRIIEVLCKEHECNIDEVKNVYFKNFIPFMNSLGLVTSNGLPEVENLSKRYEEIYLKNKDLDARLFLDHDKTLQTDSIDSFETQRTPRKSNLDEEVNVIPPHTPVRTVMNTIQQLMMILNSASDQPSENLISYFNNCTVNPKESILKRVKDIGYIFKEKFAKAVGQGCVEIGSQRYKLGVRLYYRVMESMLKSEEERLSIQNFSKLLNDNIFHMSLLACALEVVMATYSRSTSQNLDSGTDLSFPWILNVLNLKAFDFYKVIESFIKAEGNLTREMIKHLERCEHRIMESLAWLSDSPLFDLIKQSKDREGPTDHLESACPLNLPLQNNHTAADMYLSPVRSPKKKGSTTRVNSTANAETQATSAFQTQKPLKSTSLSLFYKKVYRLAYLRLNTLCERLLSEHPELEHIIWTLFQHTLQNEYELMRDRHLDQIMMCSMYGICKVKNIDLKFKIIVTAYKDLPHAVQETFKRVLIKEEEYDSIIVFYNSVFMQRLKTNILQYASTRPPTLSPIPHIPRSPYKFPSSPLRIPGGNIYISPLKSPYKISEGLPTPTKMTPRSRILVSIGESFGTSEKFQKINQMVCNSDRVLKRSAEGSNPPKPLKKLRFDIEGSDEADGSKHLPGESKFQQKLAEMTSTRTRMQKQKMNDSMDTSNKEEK
Procedure: (§1) Immunoprecipitation and Immunoblotting-1×10⁶ HEK 293 cells were seeded onto a T-150 flask. 24 hours later, cells were transfected with 15 μg of the indicated plasmids. 48 hrs post transfection, cells were harvested, washed twice with cold PBS, and lysed with MPER (Pierce) containing 1× protease inhibitor cocktail (HALT, Pierce). Lysates were centrifuged at 4° C. for 30 minutes at 16,000 g to remove particulate material. The supernatant was precleared for 2 hours with protein A-agarose (Roche). The pre-cleared cell lysates were mixed with the indicated antibodies and protein A- or protein G-agarose (Roche) and incubated at 4° C. overnight. The next day, the reaction mixture was washed three times with cold PBS, boiled for 3 minutes and eluted in 2×SDS buffer. The eluted materials were subsequently analyzed by immunoblotting with the indicated antibodies.
While pp32 inhibits transformation, pp32r1 (ANP32C) and pp32r2 (ANP32D), both highly homologous to pp32 at the protein level (87.7% and 89.3% respectively) are tumorigenic (Kadkol, S. S., Brody, J. R., Pevsner, J., Bai, J., and Pasternack, G. R. (1999) Nature Med. 5, 275-279). Therefore, the possibility of an interaction between these family members and Rb was explored. pp32r1 and r2 were V5-epitope tagged and overexpressed in HEK 293 cells. HEK 293 cells were transfected with pp32V5, pp32r1V5, pp32r2V5 or LacZV5 expression vectors as indicated. Equal amounts of cell extracts were precipitated with anti-Rb (G99-2005) antibody and analysed by western blotting with anti-V5 antibody. Equal amounts of cell lysates were immunoprecipitated with anti-Rb and immunoblotted with anti-V5.

[2] = molecular target: T2, WT-LP (wild-type large pocket fragment of RB, amino acids 379-928) (UniProt P06400 379-928); assay: cotransfection in HEK 293, IP with anti-V5, western with anti-Rb (851)
T2 construct: range 379-928; Expressed by cotransfection in HEK 293 cells; Construct from Knudsen et al., 1996; also called Rb large pocket fragment
T2 sequence (looked up): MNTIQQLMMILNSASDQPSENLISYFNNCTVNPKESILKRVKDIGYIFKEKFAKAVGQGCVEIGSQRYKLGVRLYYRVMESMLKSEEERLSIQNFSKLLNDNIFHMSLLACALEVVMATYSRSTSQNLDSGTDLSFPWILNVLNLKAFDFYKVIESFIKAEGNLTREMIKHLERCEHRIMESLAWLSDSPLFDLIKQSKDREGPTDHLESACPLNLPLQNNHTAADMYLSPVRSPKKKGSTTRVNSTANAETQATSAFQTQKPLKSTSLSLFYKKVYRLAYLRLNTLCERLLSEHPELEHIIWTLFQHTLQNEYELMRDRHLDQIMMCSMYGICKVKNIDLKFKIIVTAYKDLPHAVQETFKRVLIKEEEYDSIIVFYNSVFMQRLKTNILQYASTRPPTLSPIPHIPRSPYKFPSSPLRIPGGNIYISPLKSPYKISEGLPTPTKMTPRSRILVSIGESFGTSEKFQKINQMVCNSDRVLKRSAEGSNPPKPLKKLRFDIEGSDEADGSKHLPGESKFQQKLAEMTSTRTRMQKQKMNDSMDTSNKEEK
From the text: (§2) Equal amounts of cell extracts were precipitated with anti-V5 antibody. Upper panel, the presence of WT-LP or PSM2T-LP in immunoprecipitates was probed by western blot analysis using anti-Rb antibody (851). The right-hand arrow indicates the position of the Rb large pocket fragment. The lower band present in all three lanes is immunoglobulin heavy chain, which serves as a loading control. Middle panel, anti-V5 immunoprecipitates were subjected to western blot analysis with anti-V5 antibody to confirm pp32V5 immunoprecipitation. Lower panel, cell extracts were subjected to western blotting with anti-Rb antibody (851) to confirm expression of WT-LP and PSM2T-LP.
as §1, with “The next day, the reaction mixture was washed three times with cold PBS, boiled for 3 minutes and eluted in 2×SDS buffer.” left out, “antibodies. […]” for “antibodies.”

[3] = molecular target: T3, PSM2T-LP (double T821A/T826A large pocket mutant of RB) (UniProt P06400 379-928); assay: as above
T3 construct: range 379-928; Expressed by cotransfection in HEK 293 cells
T3 sequence (looked up): T2 sequence (looked up) with T443A, T448A
From the text: as §2
as §1, with “The next day, the reaction mixture was washed three times with cold PBS, boiled for 3 minutes and eluted in 2×SDS buffer.” left out, “antibodies. […]” for “antibodies.”

binding result [1]: no binding
B1: pp32r2V5 (V5-epitope tagged pp32r2, ANP32D) (other, UniProt O95626 1-131, looked up, not shown: small tags and cut ends)
chain: MEMGKWIHLELRNRTPSDVKELFLDNSQSNEGKLEGLTDEFEELELLNTINIGLTSIANLPKLNKLKKLELSSNRASVGLEVLAEKCPNLIHLNLSGNKIKDLSTIEPLKKLENLESLDLFTCEVTNLNNY
notes: Overexpressed in HEK 293 cells

binding result [1]: no binding
B2: pp32Δ201-360V5 (other, not shown: small tags and cut ends)
chain: MEMGRRIHLELRNRTPSDVKELVLDNSRSNEGKLEGLTDEFEELEFLSTINVGLTSIANLPKLNKLFNCEVTNLNDYRENVFKLLPQLTYLDGYDRDDKEAPDSDAEGYVEGLDDEEEDEDEEEYDEDAQVVEDEEDEDEEEEGEEEDVSGEEEEDEEGYNDGEVDDEEDEEELGEEERGQKRKREPEDEGEDDD
notes: also called pp32D201-360V5

binding result [1]: no binding
B3: pp32r1V5 (V5-epitope tagged pp32r1, ANP32C) (other, UniProt O43423 1-234, looked up, not shown: small tags and cut ends)
chain: MEMGRRIHSELRNRAPSDVKELALDNSRSNEGKLEALTDEFEELEFLSKINGGLTSISDLPKLKLRKLELRVSGGLEVLAEKCPNLTHLYLSGNKIKDLSTIEPLKQLENLKSLDLFNCEVTNLNDYGENVFKLLLQLTYLDSCYWDHKEAPYSDIEDHVEGLDDEEEGEHEEEYDEDAQVVEDEEGEEEEEEGEEEDVSGGDEEDEEGYNDGEVDGEEDEEELGEEERGQKRK
notes: as for B1

binding result [2]: binds
binding result [3]: no binding
B4: V5-epitope tagged pp32 (pp32V5) (other, not shown: small tags and cut ends)
chain: MEMGRRIHLELRNRTPSDVKELVLDNSRSNEGKLEGLTDEFEELEFLSTINVGLTSIANLPKLNKLKKLELSDNRVSGGLEVLAEKCPNLTHLNLSGNKIKDLSTIEPLKKLENLKSLDLFNCEVTNLNDYRENVFKLLPQLTYLDGYDRDDKEAPDSDAEGYVEGLDDEEEDEDEEEYDEDAQVVEDEEDEDEEEEGEEEDVSGEEEEDEEGYNDGEVDDEEDEEELGEEERGQKRKREPEDEGEDDD
notes: Expressed by transient transfection in HEK 293 (or NIH 3T3) cells and tested in cell extracts; also called V5-tagged pp32
